Test results from patent US20030166537A1, “Use of GDNF for treating corneal defects” (Biopharm Gesellschaft Zur Biotechnologischen Entwicklung …, priority 1999, published 2003).

Legend:
[1] = test system: corneal epithelial cells; test: modified Boyden chamber migration assay; type: cell-based; conditions: 250 ng/ml in lower well
Description: In order to further evaluate the chemotactic effect of GDNF on corneal epithelial cells, a modified Boyden chamber assay was used. 4×10^5 cells from the either primary cultured cells or the corneal epithelial cell line were seeded onto tissue culture inserts containing a polyethylene terephthalate (PET) filter having a pore size of 8 μm (Falcon). Within 4 hours after seeding most cells had attached to the filter and formed a semiconfluent monolayer. The medium was then changed to SHEM without additives in the upper well and SHEM with GDNF (250 ng/ml) in the lower well. After 24 h of culture cells were removed from the surface of the insert by gentle scrubbing with a rubber policeman. Cells on the bottom of the insert (which had migrated through the filter) were fixed with −20° C. methanol and stained with crystal violet. The entire surface of the filters was screened for cells under the microscope.

[2] = test system: primary human corneal stromal cells; test: proliferation of cultured stromal keratocytes (cell counting, Cell Titer 96 AQueous assay); type: cell-based; conditions: 20 or 100 ng/ml; serum-free medium; D6; p<0.005
Description: In order to investigate the effect of GDNF on the proliferation of cultured stromal keratocytes the cells were passaged from DMEM +10% FBS into DMEM +1% FBS or into DMEM without FBS at a density of 5×10^4 cells/60 mm dish. Some cultures received recombinant human GDNF at the above-mentioned concentrations. Proliferation was measured after 6 days by counting cells under the phase contrast microscope (50 fields at 100×magnification per condition) as well as trypsinized cells. Also a Cell Titer 96 AQueous One Solution proliferation assay (Promega) was performed according to the manufacturess description. For this calorimetric assay 500 or 1000 cells were grown for 6 days in 96-well-plates (Falcon). Upon addition to the culture well a titrazolium dye is bioreduced by cells into a colored formazan product and the absorbance is quantified at 490 nm. The quantity of the formazan product is proportional to the number of living cells in the well and can therefore serve to estimate proliferation.

[3] = test system: primary human corneal epithelial cells; test: in vitro wound healing assay (scratch wound), primary cells; type: cell-based; conditions: 250 ng/ml; 18 h; control less than 10%
Description: (§1) For in vitro wound healing assays primary corneal epithelial cells and cells from the corneal epithelial cell line were seeded at a density of 5×10^5 onto 60 mm plastic dishes with 2 mm grid (Sarstedt, Numbrecht, Germany) and cultured for 2 days until subconfluency. For experiments with artemin primary cultured rabbit corneal epithelial cells were used. These cells had been isolated with Dispase (1,2 U/ml) and trypsin/EDTA. Rabbit cells had been cultured in medium 500 with additives (Cascade Biologies).
(§2) The cell layer was injured under the microscope by inducing several parallel scratches with a soft plastic cell scrubber (Falcon, Becton and Dickinson, Heidelberg, Germany). The tip of the scrubber was cut and measured about 1 mm and consequently the width of the scratch in the cell layer was also about 1 mm. Selected areas in the dishes were marked with a very fine marker pen and consecutive images were taken at different time points at 5×magnification under an inverted phase contrast microscope (Axiovert 25, Zeiss, Jena, Germany) equipped with a video camera. Following the experimental injury dishes were incubated in SHEM medium either containing no growth factors (control) or containing either GDNF (250 ng/ml) (recombinant human GDNF expressed in E. coli), NGF (250 ng/ml) (Boehringer Mannheim, Germany) or EGF ([…]). For experiments investigating artemin cells were cultured in medium 500 without additives and 250 ng artemin was added. For each condition four representative areas were evaluated within three dishes. The mean diameter of the scratch in each representative area was set as 100% at the beginning of the experiment. 18 hours later the mean diameter of the same scratch was calculated again and expressed in percent of the diameter at the beginning of the experiment.

[4] = test system: corneal epithelial cells from the SV40 transformed cell line; test: in vitro wound healing assay (scratch wound), cell line; type: cell-based, human; conditions: 250 ng/ml; 18 h; control 20%±4.5
Description: as §1, §2

[5] = test system: ERK1, ERK2, JNK1 and JNK2; test: western blot of phosphorylated MAP kinases in cultured human corneal epithelium; type: cell-based; conditions: human epithelial cells
Description: (§3) In order to evaluate the effect of GDNF and other neurotrophic factors on the activation of signal transduction pathways in cultured corneal epithelial and stromal keratocytes, western blots were performed for detecting an accumulation of phosphorylated MAP kinases ERK and JNK in the presence of GDNF, NGF and BDNF. Human stromal keratocytes were cultured in RPMI 1640 medium containing L-glutamine (glutaMAX) or DMEM with 10% FBS for one day and starved in serum-free medium for another day. Cultures were then washed with PBS and incubated in serum-free DMEM without additives or with recombinant human GDNF (200 ng/ml), recombinant human NGF (200 ng/ml) and recombinant human BDNF (200 ng/ml) (all obtained from R & D Systems, Mineapolis, Minn., USA) for 30 min. Some cultures were incubated with an inhibitor of MAP kinases (PD 98059, Torcris Cookson Ballwin, Mo., USA) at 100 μM for 1 h prior to exposure to neurotrophines. After washing with PBS, culture cells were solubilized in lysis buffer containing 50 mM Tris-Cl (pH 8.0), 150 mM NaCl, 0.02% sodium azide, 100 μg/ml PMSF, 1% Triton X-100 and a mixture of several protein inhibitors (Complete®, Boehringer Mannheim) (one tablet/50 ml buffer). 50 μg total protein per lane was fractionated by a 10% STS-MOPS NUPAGE Bis-tris gel (NOVEX, San Diego, Calif., USA) and blotted onto nitrocellulose membrane. Membranes were stained with diluted polyclonal antibodies against ERK1, ERK2, JNK1 and JNK2 (Santa Cruz Biotechnology, Santa Cruz, Calif., USA). Also a polyclonal antibody was used which recognizes the […] form of either ERK1 and ERK2 which was raised against the catalytic core of the phosphorylated threonine residue 183 and tyrosine residue 185 of mammalian ERK2. Similarily, a polyclonal antibody recognizing the phosphorylated form of JNK1 and JNK2 was used (both from Promega). In the last step the membranes were visualized with the ECL western blot analysis system (Amersham).

[6] = test system: ERK1, ERK2, JNK1 and JNK2; test: western blot of phosphorylated MAP kinases in cultured human corneal stromal keratocytes; type: cell-based
Description: as §3

[7] = test system: corneal ulcer; test: topical therapy of corneal ulcer in a human patient; type: in vivo; conditions: one patient
Description: […] Corneal ulcer accompanied by massive inflammation on the left. Epithelial defect of 3.8×3.0 mm in size, furthermore ulcus of corneal stroma in form of a punched-out defect comprising 80% of the thickness of the cornea. No pain sensation of the cornea and significant accompanying inflammation of the eye. The patient was treated with recombinant human (rh) GNDF (0.2 mg/ml) (25 μl/dose) in 2 hours intervals for 48 hours, then the doses were reduced to 20 μl 6 times per day. After healing of the epithelium the concentration was reduced to 0.1 mg/ml, and 20 μl doses were given 5 times per day. For adminstration, lyophilized recombinant human GDNF was diluted in sterile balanced salt solution (Alcon, Freiburg Germany).

[8] = rhGDNF 0.2 mg/ml eye drops, topical

B1: GDNF: recombinant human GDNF having the amino acid sequence of human wild-type GDNF (GenBank L19063, L15306) (protein)
chain: SPDKQMAVLPRRERNRQAAAANPENSRGKGRRGQRGKNRGCVLTAIHLNVTDLGLGYETKEELIFRYCSGSCDAAETTYDKILKNLSRNRRLVSDKVGQACCRPIAFDDDLSFLDDNLVYHILRKHSAKRCGCI
increase of number of migrated cells over control [1]: more than 6 fold | number of cells migrated through the filter ([1]; 8 μm pore size, 24 h, control 19±6.8): 117±37.6 | proliferation of stromal keratocytes [2]: significantly enhanced | gap in the cell monolayer filled [3]: 16.5±6% | gap in the cell monolayer filled [4]: 30%±6.9 | phosphorylation of ERK1 and ERK2 ([5]; 200 ng/ml factor vs serum-free control medium): induced | phosphorylation of JNK1/2 ([5]; vs control): not induced | activated JNK2 [6]: not induced | phosphorylation of ERK1 and ERK2 ([6]; 200 ng/ml factor vs control): induced ERK1 to a limited extent | phosphorylation of JNK1 ([6]; vs serum-free medium): weakly induced | start of wound healing [7, 8]: 2 days | time to complete wound healing of the epithelium [7, 8]: 3 weeks | inflammation and subjective afflictions after healing of the epithelium ([7]; rhGDNF topical): significant reduction | thickness of the stroma ([7]; rhGDNF topical): continuous increase
